Where a chain is given by its changes, count along the chain named.
Legend:
Test in all cases: high-throughput RNA pulldown from lysate on Ni-NTA beads; HRP: 50 mM Tris pH 8, 150 mM NaCl, 1 mM beta-mercaptoethanol, 50 ug/ml BSA, 3 ug/ml yeast RNA, 0.5% heparin; ITC and FP: Tris pH 8, 200 mM KCl, 5% glycerol; MST: 50 mM Tris pH 8, 200 mM NaCl, 1 mM DTT, BSA, heparin, 0.05% Tween 20
Conditions in all cases: tags: N-terminal His-eGFP
[1] = molecular target: T1, GFP-9S library array, motif 4 ND N98P;D124G (synthetic construct, N98P;D124G)
T1 chain: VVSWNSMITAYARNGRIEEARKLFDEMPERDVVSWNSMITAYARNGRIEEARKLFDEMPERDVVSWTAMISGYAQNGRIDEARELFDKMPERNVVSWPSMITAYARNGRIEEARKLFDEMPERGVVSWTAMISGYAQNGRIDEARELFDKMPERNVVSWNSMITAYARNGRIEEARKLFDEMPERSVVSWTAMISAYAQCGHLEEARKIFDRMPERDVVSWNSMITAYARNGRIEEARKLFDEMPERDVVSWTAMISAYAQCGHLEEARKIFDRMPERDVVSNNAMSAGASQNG

[2] = molecular target: T2, GFP-9S library array, motif 4 ND N98L;D124Q (synthetic construct, N98L;D124Q)
T2 chain: T1 chain with P98L, G124Q

[3] = molecular target: T3, GFP-9S library array, motif 4 ND N98K (synthetic construct, N98K)
T3 chain: T1 chain with P98K, G124D

[4] = molecular target: T4, GFP-9S library array, motif 4 ND N98G;D124G (synthetic construct, N98G;D124G)
T4 chain: T1 chain with P98G

[5] = molecular target: T5, GFP-9S library array, motif 4 ND N98Q;D124I (synthetic construct, N98Q;D124I)
T5 chain: T1 chain with P98Q, G124I

AUUACACGUGA (ssRNA) [Cy5-rpoA] showed a Kd ([1]; label: 5' Cy5) of 345 nM, a Kd ([2]; label: 5' Cy5) of 60 nM and a Kd ([3]; label: 5' Cy5) of 189 nM. For the same binder, the Kd ([4]; label: 5' Cy5) was 92 nM and the Kd ([5]; label: 5' Cy5) was 142 nM.

AUUAGACGUGA (ssRNA) [Cy5-rpoA-G] gave a Kd ([1]; label: 5' Cy5) of 262 nM, a Kd ([2]; label: 5' Cy5) of 68.5 nM and a Kd ([3]; label: 5' Cy5) of 315 nM. The Kd ([4]; label: 5' Cy5) was 95.2 nM and the Kd ([5]; label: 5' Cy5) was 102 nM.

AUUAAACGUGA (ssRNA) [IR-rpoA-A] was tested, and the Kd ([1]; label: 5' IRDye 800CW) was 735 nM, the Kd ([2]; label: 5' IRDye 800CW) was 80 nM and the Kd ([3]; label: 5' IRDye 800CW) was 409 nM. For the same binder, the Kd ([4]; label: 5' IRDye 800CW) was 49.9 nM and the Kd ([5]; label: 5' IRDye 800CW) was 315 nM.

AUUAUACGUGA (ssRNA) [IR-rpoA-U] showed a Kd ([1]; label: 5' IRDye 800CW) of 778 nM, a Kd ([2]; label: 5' IRDye 800CW) of 58.9 nM and a Kd ([3]; label: 5' IRDye 800CW) of 279 nM. For the same binder, the Kd ([4]; label: 5' IRDye 800CW) was 95.3 nM and the Kd ([5]; label: 5' IRDye 800CW) was 344 nM.

From article PMC8809517, “Cofactor-independent RNA editing by a synthetic S-type PPR protein”
